Earlier results on two substances are cited in PMC10886550.

Series [1] addresses DNA gyrase (Escherichia coli) (UniProt P0AES4).
Series [2] addresses GyrB (Escherichia coli) (UniProt P0AES6).

Sequence of UniProt P0AES4 (P0AES4 2-875): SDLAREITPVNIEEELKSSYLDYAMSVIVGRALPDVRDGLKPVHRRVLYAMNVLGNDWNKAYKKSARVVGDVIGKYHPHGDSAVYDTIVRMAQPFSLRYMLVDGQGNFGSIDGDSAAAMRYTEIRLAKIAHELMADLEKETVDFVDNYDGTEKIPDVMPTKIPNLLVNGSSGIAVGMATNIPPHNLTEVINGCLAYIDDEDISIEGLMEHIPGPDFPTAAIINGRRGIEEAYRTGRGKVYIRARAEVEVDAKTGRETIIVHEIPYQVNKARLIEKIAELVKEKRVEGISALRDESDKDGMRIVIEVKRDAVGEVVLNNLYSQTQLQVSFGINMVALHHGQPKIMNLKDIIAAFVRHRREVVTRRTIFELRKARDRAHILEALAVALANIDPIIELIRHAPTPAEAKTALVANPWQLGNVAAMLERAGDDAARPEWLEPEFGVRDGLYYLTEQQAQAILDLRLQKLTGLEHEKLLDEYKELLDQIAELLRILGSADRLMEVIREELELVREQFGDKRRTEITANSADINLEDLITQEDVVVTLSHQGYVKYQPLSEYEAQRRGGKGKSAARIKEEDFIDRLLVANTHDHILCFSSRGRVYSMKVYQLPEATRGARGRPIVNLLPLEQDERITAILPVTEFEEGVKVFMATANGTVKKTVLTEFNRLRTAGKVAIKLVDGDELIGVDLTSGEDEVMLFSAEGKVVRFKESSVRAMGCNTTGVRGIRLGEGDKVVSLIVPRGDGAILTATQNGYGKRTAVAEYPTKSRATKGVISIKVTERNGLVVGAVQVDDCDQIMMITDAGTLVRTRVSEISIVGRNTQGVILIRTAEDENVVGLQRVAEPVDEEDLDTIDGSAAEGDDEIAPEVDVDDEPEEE

Consider “GyrI peptide 33-48 (from UniProt P33012)”, for which the Kd in series [1] was 26 µM.

With YacG (from UniProt P0A8H8), the Kd in series [2] is 0.35 µM.

In general, Kd refers to the constant that tells how readily two partners part at equilibrium.
